Laboratory results reported in the DeepSol protein solubility set.

Assay: soluble on expression in E. coli; label from the status in PepcDB or PDB records

Sequence | soluble on expression in E. coli
DREELDKQLRHERERFRLLVDAVENYAIFLLDPDGLIQSWNVGAKQLTQYEESDILGEHVSTFHTEKQVADGIPEQLLQEAEECGKAIDRGLRVRKDGSTFWADVTVTALQENSDARGFAKVIKDIT | not soluble
DRTIPDYTSFNTVDEWLDAIKMSQYKESFASAGFTTFDIVSQMTVEDILRVGVTLAGHQKKILNSIQVMRAQMNQ | soluble
DSDDRVTPPAEPLDRMPDPYRPSYGRAETVVNNYIRKWQQVYSHRDGRKQQMTEEQREWLSYGCVGVTWVNSGQYPTNRLAFASFDEDRFKNELKNGRPRSGETRAEFEGRVAKESFDEEKGFQRAREVASVMNRALENAHDESAYLDNLKKELANGNDALRNEDARSPFYSALRNTPSFKERNGGNHDPSRMKAVIYSKHFWSGQDRSSSADKRKYGDPDAFRPAPGTGLVDMSRDRNIPRSPTSPGEGFVNFDYGWFGAQTEADADKTVWTHGNHYHAPNGSLGAMHVYESKFRNWSEGYSDFDRGAYVITFIPKSWNTAPDKVKQGWP | soluble
DVFQNKANVCWAKALVPVLKTAGIDMTTEQWNTVDYFETDKAHSAEIVLNQLCVRFFGLDLDSGLFSAPTVPLSIRNNHWDNSPSPNMYGLNKEVVRQLSRRYPQLPRAVATGRVYDMNTGTLRNYDPRINLVPVNRRLPHALVLHHNEHPQSDFSSFVSKLKGRTVLVVGEKLSVPGKMVDWLSDRPEATFRARLDLGIPGDVPKYDIIFVNVRTPYKYHHYQQCEDHAIKLSMLTKKACLHLNPGGTCVSIGYGYADRASESIIGAIARQFKFSRVCKPKSSLEETEVLFVFIGYDRKARTHNPYKLSSTLTNIYTGS | soluble
DVQKKTFTKWINARFSKSGKPPINDMFTDLKDGRKLLDLLEGLTGTSLPKERGSTRVHALNNVNRVLQVLHQNNVELVNIGGTDIVDGNHKLTLGLLWSIILHWQVKDVMKDVMSDLQQTNSEKILLSWVRQTTRPYSQVNVLNFTTSWTDGLAFNAVLHRHKPDLFSWDKVVKMSPIERLEHAFSKAQTYLGIEKLLDPEDVAVRLPDKKSIIMYLTSLFEVLPQ | soluble
DWNNQSIVKTGERQHGIHIQGSDPGGVRTASGTTIKVSGRQAQGILLENPAAELQFRNGSVTSSGQLSDDGIRRFLGTVTVKAGKLVADHATLANVGDTWDDDGIALYVAGEQAQASIADSTLQGAGGVQIERGANVTVQRSAIVDGGLHIGALQSLQPEDLPPSRVVLRDTNVTAVPASGAPAAVSVLGASELTLDGGHITGGRAAGVAAMQGAVVHLQRATIRRGDALAGGAVPGGAVPGGAVPGGFGPGGFGPVLDGWYGVDVSGSSVELAQSIVEAPELGAAIRVGRGARVTVPGGSLSAPHGNVIETGGARRFAPQAAPLSITLQAGAHAQGKALLYRVLPEPVKLTLTGGADAQGDIVATELPSIPGTSIGPLDVALASQARWTGATRAVDSLSIDNATWVMTDNSNVGALRLASDGSVDFQQPAEAGRFKVLTVNTLAGSGLFRMNVFADLGLSDKLVVMQDASGQHRLWVRNSGSEPASANTLLLVQTPLGSAATFTLANKDGKVDIGTYRYRLAANGNGQWSLVGAKAPP | soluble
DWVIPPINLPENSRGPFPQELVRIRSDRDKNLSLRYSVTGPGADQPPTGIFIINPISGQLSVTKPLDRELIARFHLRAHAVDINGNQVENPIDIVINVIDMNDNRPEFLHQVWNGSVPEGSKPGTYVMTVTAIDADDPNALNGMLRYRIVSQAPSTPSPNMFTINNETGDIITVAAGLDREKVQQYTLIIQATDMEGNPTYGLSNTATAVITVTD | soluble
EADYKQATALELATLVREKKVTSEELVKIALAITKRENPTLNAVITLREEAALTEAKALQDTGQPFLGVPLLLKGLGQSLKGESNTNGFGFLQDQVAGGTSTFVKALQNAGFIIIGQTNYPELGWKNISDSKLYGVSVNPWNPNHYSGGSSGGAGASVAAAFVPIASGSDAGGSIRIPASWTGTVGLKPSRGVIIGNSNSAKGQTVHFGLSRTVADTNALFETLLTKKDLPAGHLSQAQPIAYTTESPAGTPISAEAKEAVAEAVAFLKDQGYTLVEVKHPVDGERLMKNYYTVAAGSAGIADFMARQKLKRPLERNDVELLTWALFQTGKNITSEETTAAWTDIALQAQAMDEFYQQYPILLTPTTAATAPSIDNPLLKPEHAAQMEKIDQLSPAEQKQLIYDQWLTAFTYTPFTQQANLFGHPALSVPTYVSKEGLPLGIQFNSALNEDRTLLQLGALFENNHK | not soluble
EAVIVVDERDVVIDLNPQAKAIIGTPGAAWIGRPLEDVLPGLIELRDSPTDDIPDRAEITVPVNGEERAYEVRQTPLHRGYGTVTGQLITLTD | not soluble
EAYLGVMINDLVTKEISDPYRLLTSRAEHRLWLRNDNLQERLIEKSRALGLVEADVYANYLEQQQKKKQLIDYLQTTTVGQIAALKLNFKNTAQTLFDFTKRAEIKLVDLVQLLPKRFDLDVQSLNQIDIDIKYAGYIKKSEKYFKSLNNLSSVKIPLKLNYHKVPNLASEAIVKLSKIRPTDLSVASQVAGINFNDILAIKHFLDNHE | soluble
EDGRILKRFCQCEQRSLEQLMKDPLRPFVPAYYGMVLQDGQTFNQMEDLLADFEGPSIMDCKMGSRTYLEEELVKARERPRPRKDMYEKMVAVDPGAPTPEEHAQGAVTKPRYMQWRETMSSTSTLGFRIEGIKKADGTCNTNFKKTQALEQVTKVLEDFVDGDHVILQKYVACLEELREALEISPFFKTHEVVGSSLLFVHDHTGLAKVWMIDFGKTVALPDHQTLSHRLPWAEGNREDGYLWGLDNMICLLQGLAQS | soluble
EEHLSVMYERLRQELPKLFLQSHDYSLYSLDVEFINEILNIRTKGRTWYILSLTLCRFLAWNYFAHLRLEVLQLTRHPENWTLQARWRLVGLPVHLLFLRFYKRDKDEHYRTYDAYSTFYLNSSGLI | soluble
EEQIMRRNEDSWLIDGATPLEDVMRALNIHTFPRDENYETIGGFMMYMLRKIPKKTDFVLYDKYKFEIIDTENFRIDQLMVSFRK | soluble
EESPFVGNPGNITGARGLTGTLRCQLQVQGEPPEVHWLRDGQILELADSTQTQVPLGEDEQDDWIVVSQLRITSLQLSDTGQYQCLVFLGHQTFVSQPGYVGLEGLPYFLEEPEDRTVAANTPFNLSCQAQGPPEPVDLLWLQDAVPLATAPGHGPQRSLHVPGLNKTSSFSCEAHNAKGVTTSRTATITVLPQQ | soluble
EFGQNRATLLASIDVALEHAELFAADDDQMGLFLDESFSIKPKYVETEELPLVDLLAFEKETLGIYFSNHPLSAFRKQLTAQGAVSILQAQRAV | not soluble
EFVGRGIGNSVREDLSFNLLLSSDMDETQAQELQRQIAATPFVKDVSYISADQALEEMKKELGEDDPAKMLGYNPLQAEMCVHLKAQYTHPDSLKTIDSAIRTWNGVDNLEYRADMFDIVHRNTRR | not soluble
EGFRIAFISDLHYKSLLKEKGLNNLVDLLIAQKPDVLLMGGDYQEGCEYVEPLFAALARVKTPMGTFGVMGNNDYERCHDEIIRTMKHYGMRPLEHEVDTLRKDGQQIILAGVRNPFDLKQNGVSPTLALSPNDFVILLVHTPDYVEDVSVANTDIALAGHTHGGQVRVFGYAPIQNSHYGTRF | not soluble
EGLLNNHLDIPTATTQALTIQPSASYRINDHWSVGAALGIQYGMYEVETKGALNFNDEDQDTQLNGRVGVLYEATPGTRLGLSYSSETEFEFDNSNSIAPQQLIFSAYHEVNDDLAVMWNVNWQDWSEYTTTLKAADLVDVETQDTYQIALGTQYKLNEKMMWNAGFAFDTSMYESQSNGDITVPTGKAYRIGTGIDYKLDSENSIGFAFEAVLMESSETPRLQAGFDEPALYFMSMSYNWKN | not soluble
EIINEEGKLERKADMFTRRTIQTHRAVTSVDTAVEALAVSIGEKACVDLGYMASLMGGPEKIPQIVEDLKGIIFKNPATGPFDLEDGGAHWHQGWQTADEYLSGNVRAKLAIARAAAEENPQFAINAEKLEQVQPKDLTASEISVRIGASWIDPEYYQQFMFELLHTPVYLQDRKIKLQYSPTTGEWNVQGKSTDNRDNVRVYATYGTKRINAYEIFEQTLNQRDVRIFDKTEVDGKEVRVLNEKQTAIAQQKQEAMCETFKDWIFKDPERRETLCRRYNEKFNCIRPREYDGSHIRFAGMNPEISLRTHQ | not soluble
EKDSVLRHNINKLGLTSIAVEPVAAWKLNDRHSFGAGIIAQHTSAELRKYADWGIKSKAEILTAKPPKPNGVAEAAKIQADGHADVKGSDWGFGYQLAWMWDINDRARVGVNYRSKVSHTLKGDAEWAADGAAAKAMWSTMLAANGYTANEKARVKIVTPESLSVHGMYKVSDKADLFGDVTWTRHSRFDKAELVFEKEKTVVKGKSDRTTITPNWRNTYKVGFGGSYQISEPLQLRAGIAFDKSPVRNADYRMNSLPDGNRIWFSAGMKYHIGKNHVVDAAYTHIHINDTSYRTAKASGNDVDSKGASSARFKNHADIIGLQYTYKFK | not soluble
EKGLEIAQERKARDEGWGDSIATMEMILKNAQGESSTRLMRLKSLEVEGDGDKGLTIFDQPRDVTGTAFLNHSHTIGADDQWLYLPALKRVKRISSRNKSGPFMGSEFAYEDLSSFEIEKYRFNHLKDEKFNGQDVFVLEQIPTDKNSGYTKQVVWLDKAHYRPLKVEFYDRKGALLKTLTFANYKQYLDKYWRAHTMAMTNHQTGKSTELNTSDLRFQTGLEENDFNKNVLKR | soluble
EKTEQEQILIPVANPDTIEDLINLALVIRDTKQKKELIALNVINDNNNSENKELQGKRNLEKAAMIAASADVSVNMVSRYDLNIASGIIHTIKEYDATDVVIGLHRKANIVDSFFGNLAESLLKGTHREVIIAKFLMPVN | not soluble
ELAAIQNLGGMDVLCTDKTGTITEDRVVLVQHLNPLGDLSDEVLNLAYLNSSYQTGWKNLMDIAVINFYEEHQWKTPFKNVTKIDEIPFDFSRRRLTVVVNADDHQLMITKGAVEEMEEVCTHAQINGEIVPLSTAVREELRRVNVQMNKQGMRVLAVAVKKDVHKEAVYSVEDEKEMTLIGFMGFLDP | not soluble
ELALWSPEVKIVELVKDCKGLGFSILDYQDPLDPTRSVIVIRSLVADGVAERSGGLLPGDRLVSVNEYCLDNTSLAEAVEILKAVPPGLVHLGIC | soluble
ELIRVGVVGTGYMGENHVRIYSEMEDVRLIGISDPNSSRVKELAARYETLPFSDHKKMFGKTNLDAISIAAPTTLHCPIVLDALEAGVDVLVEKPIADSVENATAMIESAEEMDRHLMVGHIERFNPAVLKLKEVVDSGVLGKIVSV | not soluble
ELKAKILHIPGDELINHNNQILEEYDHSQNTLIVGPNHVNSNIIHALTASEDTLFYKHNGIMPKALLRAMLQDITNSNQSSGGSTITQQLVKNQVLSNKKTYSRKANEIILATRVENLLSKDEIIYTYLNIVPFGHDYNGANITGISSASYSLFGIPAKDLNIAQSAYLIGLLQSPYGY | not soluble
EQTQNLYIEGDNLDAMKLLKKSYAGKVDVIYIDPPYNTGKDFIFNDTFALSQEESDEKQGRYNEEGQRLFQNTEANGKFHSDWCSMMYARLMLARTLLNDNGIIFISIDDHELANLIKIGNEVFNASNFIDVFNWAKTETPENLSKKSKQIIEYIVCYQKKKNDMKFQGLKKESVSSNGLLNQPNSVGILTFPANKVVTSIPDGVIKAGMYGTDAYDVELLEDTTVRGGLFTAPVKLKAKFKWSQANLDKEIQKGTTIKIPTLKLSPSYEKLEYDPEVPPNLINYKVGVETNEQAGNHQLQFFDKKVFNFPKPVSLIQYLCEFIDTKNKDCIVMDFFSGSGTTAEAVMRMNMKPRKNKVKYILVQLPEDVTETIKKAKTPSEKEIMQNAIDFLTENHKALNICELSKERIRRAGDTIEAECNQRKSKDLPDIGFRVFRIADSNMKDVYYSAK | not soluble
